From patent US20160324977A1
Where no end group is shown, it is not given here.

Target: purified human fibrinogen (human) (UniProt P02671)
Assay: cell-based or functional assay

Sequence of purified human fibrinogen (human) (P02671 20-629 limits assumed, chain 1 of 3): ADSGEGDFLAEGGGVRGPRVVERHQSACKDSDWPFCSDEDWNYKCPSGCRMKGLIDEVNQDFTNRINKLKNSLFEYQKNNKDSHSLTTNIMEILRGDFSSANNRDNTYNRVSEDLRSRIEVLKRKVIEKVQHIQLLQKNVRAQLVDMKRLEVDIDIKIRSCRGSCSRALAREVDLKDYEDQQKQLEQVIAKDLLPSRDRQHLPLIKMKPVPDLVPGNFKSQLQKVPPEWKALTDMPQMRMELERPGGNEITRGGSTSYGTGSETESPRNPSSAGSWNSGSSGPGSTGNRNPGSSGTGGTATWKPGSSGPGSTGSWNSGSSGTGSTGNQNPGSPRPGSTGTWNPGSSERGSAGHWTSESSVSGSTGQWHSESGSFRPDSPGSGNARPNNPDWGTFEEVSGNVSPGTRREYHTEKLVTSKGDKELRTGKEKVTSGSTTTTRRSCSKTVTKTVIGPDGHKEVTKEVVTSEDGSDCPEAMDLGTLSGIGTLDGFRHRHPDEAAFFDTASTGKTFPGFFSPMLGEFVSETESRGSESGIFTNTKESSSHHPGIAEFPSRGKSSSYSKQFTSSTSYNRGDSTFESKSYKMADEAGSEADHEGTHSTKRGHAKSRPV
Sequence of purified human fibrinogen (human) (P02675 31-491 limits assumed, chain 2 of 3, further chain): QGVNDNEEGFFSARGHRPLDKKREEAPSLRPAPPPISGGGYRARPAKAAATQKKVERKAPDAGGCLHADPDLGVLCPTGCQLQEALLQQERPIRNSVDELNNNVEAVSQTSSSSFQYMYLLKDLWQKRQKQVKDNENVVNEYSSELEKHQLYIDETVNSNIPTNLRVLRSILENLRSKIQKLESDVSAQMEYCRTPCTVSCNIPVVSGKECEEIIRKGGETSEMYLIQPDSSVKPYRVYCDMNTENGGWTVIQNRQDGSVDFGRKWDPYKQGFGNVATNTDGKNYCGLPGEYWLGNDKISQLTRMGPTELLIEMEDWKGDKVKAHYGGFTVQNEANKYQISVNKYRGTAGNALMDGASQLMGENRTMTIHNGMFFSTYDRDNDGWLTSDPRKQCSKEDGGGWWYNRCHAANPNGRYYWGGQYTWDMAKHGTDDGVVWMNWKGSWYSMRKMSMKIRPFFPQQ
Sequence of purified human fibrinogen (human) (P02679 other isoform, or with tags, fused parts or gaps limits assumed, chain 3 of 3, further chain): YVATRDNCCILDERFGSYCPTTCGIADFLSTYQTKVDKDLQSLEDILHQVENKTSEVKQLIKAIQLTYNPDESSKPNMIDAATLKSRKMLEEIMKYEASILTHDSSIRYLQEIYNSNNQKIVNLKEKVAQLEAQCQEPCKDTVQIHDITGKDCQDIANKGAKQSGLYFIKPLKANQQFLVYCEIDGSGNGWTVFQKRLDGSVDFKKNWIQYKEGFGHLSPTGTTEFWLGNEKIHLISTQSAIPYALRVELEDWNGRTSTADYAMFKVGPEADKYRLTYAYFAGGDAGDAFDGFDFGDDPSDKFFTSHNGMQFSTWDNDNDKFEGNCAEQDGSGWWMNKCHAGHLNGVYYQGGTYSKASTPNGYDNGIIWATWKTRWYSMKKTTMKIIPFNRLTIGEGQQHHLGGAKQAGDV

B1: Peptide dendrimer No. 13 (peptide, part only)
chain 1: GPRPG
chain 2: GHRPY
modifications: not fully specified (C-terminus); also: chimeric four-branch dendrimer: two copies of each chain, C-termini attached to a branched core of undefined make-up
B1 was tested. Which Clotting activity (seconds), non-irradiated control did it give?
The Clotting activity (seconds), non-irradiated control was 4.3 s.

What about the Clotting activity (seconds), storage for 2 weeks post irradiation of the same binder?
Its Clotting activity (seconds), storage for 2 weeks post irradiation is 9.4 s.

And the Clotting activity (seconds), storage for 4 weeks post irradiation?
Its Clotting activity (seconds), storage for 4 weeks post irradiation is 10 s.
